From the DeepSol protein solubility set

Assay: soluble on expression in E. coli; label from the status in PepcDB or PDB records

Sequence | soluble on expression in E. coli
MSLADTYRPEISVAGFIPLPDCGRQVYNFNPGWRFFKGDIRGAEAVNFDDRSWEVVSTPHTVELMPAEGSGCRNYQGPAWYRKHFVVPTATKGQRVLLHFEAAMGKQVLYLNGKRVQEHLGGYLPFTLDLTANGVQAGDSCLLAVYTDNSNDKSYPPGKPQYTLDFAYHGGIYRDVWMIAKSPVAITDAIDSRTVGGGGVFVHFDKISEKSAQVYVETEIQNDNTRSESVTIETTLTDAEGNVIKRTSGKLSLNSGEKKSIRQQMEVRNPKLWSPDAPYLYRVQSRIKKGNRSIDGGTTRIGIRLAEFRGKEGFWLNGKPFGQLVGANRHQDFAYVGNALPNSQQWRDAKRLRDAGCTIIRVAHYPQDPSFMDACDELGLFVIVATPGWQYWNKDPKFGELVHQNTREMIRRDRNHPSVLMWEPILNETRYPLDFALKALEITKEEYPYPGRPIAAADVHSAGVKEHYDVVYGWPGDDEKEDKPEQCIFTREFGENVDDWYAHNNNNRASRSWGERPLLIQALSLAKSYDEMYRTTGQFIGGTQWHPFDHQRGYHPDPYWGGIYDAFRQKKYAYEMFRSQSPASLQHPLAECGPMIFLAHEMSQFSDKDVVVFSNCDSIRLSIYDGTKTWTKPVVHAKGHMPNAPVIFENVWDFWEARGYSYTQKNWQKVNMVAEGIIDGKVVCTQKKMPSRRSTKLRLYADTQKVNLVADGSDFIVVVAEVTDDSGNVRRLAKENIVFTVEGEGEIIGDARIGANPRAVEFGSAPLLIRSTRKAGKIKVKAHVQFEGTQAPTAAEMEFESVPAELPFCYDEKEGHHHHHH | soluble
ATLKDITRRLKSIKNIQKITKSMKMVAAAKYARAERELKPARVYGVGSLALYEKADIKTPEDKKKHLIIGVSSDRGLCGAIHSSVAKQMKSEAANLAAAGKEVKIIGVGDKIRSILHRTHSDQFLVTFKEVGRRPPTFGDASVIALELLNSGYEFDEGSIIFNRFRSVISYKTEEKPIFSLDTISSAESMSIYDDIDADVLRNYQEYSLANIIYYSLKESTTSEQSARMTAMDNASKNASEMIDKLTLTFNRTRQAVITKELIEIISGAAAL | soluble
MLKFRTVHGGLRLLGIRRTSTAPAASPNVRRLEYKPIKKVMVANRGEIAIRVFRACTELGIRTVAIYSEQDTGQMHRQKADEAYLIGRGLAPVQAYLHIPDIIKVAKENNVDAVHPGYGFLSERADFAQACQDAGVRFIGPSPEVVRKMGDKVEARAIAIAAGVPVVPGTDAPITSLHEAHEFSNTYGFPIIFKAAYGGGGRGMRVVHSYEELEENYTRAYSEALAAFGNGALFVEKFIEKPRHIEVQILGDQYGNILHLYERDCSIQRRHQKVVEIAPAAHLDPQLRTRLTSDSVKLAKQVGYENAGTVEFLVDRHGKHYFIEVNSRLQVEHTVTEEITDVDLVHAQIHVSEGRSLPDLGLRQENIRINGCAIQCRVTTEDPARSFQPDTGRIEVFRSGEGMGIRLDNASAFQGAVISPHYDSLLVKVIAHGKDHPTAATKMSRALAEFRVRGVKTNIAFLQNVLNNQQFLAGTVDTQFIDENPELFQLRPAQNRAQKLLHYLGHVMVNGPTTPIPVKASPSPTDPVVPAVPIGPPPAGFRDILLREGPEGFARAVRNHPGLLLMDTTFRDAHQSLLATRVRTHDLKKIAPYVAHNFSKLFSMENWGGATFDVAMRFLYECPWRRLQELRELIPNIPFQMLLRGANAVGYTNYPDNVVFKFCEVAKENGMDVFRVFDSLNYLPNMLLGMEAAGSAGGVVEAAISYTGDVADPSRTKYSLQYYMGLAEELVRAGTHILCIKDMAGLLKPTACTMLVSSLRDRFPDLPLHIHTHDTSGAGVAAMLACAQAGADVVDVAADSMSGMTSQPSMGALVACTRGTPLDTEVPMERVFDYSEYWEGARGLYAAFDCTATMKSGNSDVYENEIPGGQYTNLHFQAHSMGLGSKFKEVKKAYVEANQMLGDLIKVTPSSKIVGDLAQFMVQNGLSRAEAEAQAEELSFPRSVVEFLQGYIGVPHGGFPEPFRSKVLKDLPRVEGRPGASLPPLDLQALEKELVDRHGEEVTPEDVLSAAMYPDVFAHFKDFTATFGPLDSLNTRLFLQGPKIAEEFEVELERGKTLHIKALAVSDLNRAGQRQVFFELNGQLRSILVKDTQAMKEMHFHPKALKDVKGQIGAPMPGKVIDIKVVAGAKVAKGQPLCVLSAMKMETVVTSPMEGTVRKVHVTKDMTLEGDDLILEIE | not soluble
MCLILTAWHAHPAYALVVAANRDEFYDRPAAPLAWWSDAPHVLAGRDLAQVVGHAGTWMGMTRDGRFAALTNYRAPSERRPDARSRGELVANFLAAEDASIPAYLDQLKARNGVYNGYNLLTATRDELWWTSNRAEAPRQLAPGVYGLSNALLDTPWFKVRHRVAAFAEALAADTGRHGNAIDVARYLDLLAETREAPLGALPATGVAPEWEKLLSAAFIRSPRYGTRASTVLRIRHDGCFDVTERRFDAQGQIGETRYLGVLDAVTQADTPLEHHHHHH | not soluble
WLSPEIEALSHGTRLNNIDMYPALQRLLPWPEATNFEEFAPSHLSVPSGNQHRLDYSSGRPVIRVKLQECFGLEESPQLCGIPVQFHLLSPAGRPLAVTDDLRSFWSGPYSQVRAEMRGRYPKHPWPEDPWTAPATARTKNRM | not soluble
MSLALAIFDLDETLIHGDCATLWSEQMGRLGWVDSESFMRRNHELMDAYSHGKLAMEEFMDFSLEPMSGRTPEEVAHLVEPWVEEVIEPIIFSDACKAIAAHRQAGDRILVISASGTHLVKPIAARLGIDEVLGIELEVQHGVYSGRTVGTLTYREGKITRLLQWLDAEEENLEGATFYSDSRNDLPLLLRVDHPQVVNPDPVLREHAQKAGWPIHHWKEGHHHHHH | soluble
HLGEHEVPGHLMDFVTTYSTNLAVPQRRDADDERVLAGKKLFYQANCVACHVPKYVTRRDAAQPEHRFQLIWPYTDMLLHDMGDGLADGVSEEQANGREWRTPPLWGIGLTRLVNPSATWLHDGRARTLLEAVLWHGGEAQAARDRVVAMSPGERADLIRFLESL | not soluble
MGSDKIHHHHHHMKILIYGAGVLGSYAAYELKRVGHEVTILARSSRYEELKEKGLVIRHWFQRKTTKNKINVVKELLPEEYYDAVFIVMQSSQTNAILPVITANVKCPLFVFVGNQDKAKDISEKIKSTSKSNPRVLFGFFSIGGRREGGKVISVHTKHPDFDIGDLEGRDDYKIIIEKIFKETSFKLHYHVNMDDFFKTHIVVIMPLAYLAYMSNCDLRKIAWNRKALNAVIDAMIEGHEVLIKLGHKVDPESSERLLRNHRKVAYLGLKVCAMTPLGKLGISDHCKSGWREMEYLDKRLLEWAKKSNLETPNINKLREHLIKYVHKKVI | not soluble
MQMYLADCIFPDIEGQLAAYKSFCELWDSGEMAKLDNFDGFQMLFRVHAPGAGRVTILFKAESDAQIFEAFAPWRAQFGIEMDFTPVIGCQDVVDYHKKLFAKMS | not soluble
GMQTPALIIVTGHPATGKTTLSQALATGLRLPLLSKDAFKEVMFDGLGWSDREWSRRVGATAIMMLYHTAATILQSGQSLIMESNFRVDLDTERMQNLHTIAPFTPIQIRCVASGDVLVERILSRIAQGARHPGHCDDRSPADLELVRSRGDIPPLPLGGPLLTVDTTFPEQIDMNAIVQWVRQHLQSGTAFL | soluble
MCSKNSENSNVPRAKSDFITPNCSENTKLFMIFQSRKSIICEVCGKKYSSKSALAKHKRTHETDKRCKIKLIFGSSQKKTQKLYFLQKLSFLDADFFSILERNLLIFGYFAIFFSQKNTYISRFTCPMCYASFDLSDPFKIHLRKHDNLKPFGCSYCFKQFSSRSVCRRHVQLMHENQKRAGDGDNDDDDDID | not soluble
MVTKRIIPCLDVHNGRVVKGVNFVNIRDAGDPVEIASYYDKAGADELTFLDITASAEARNIMIDVVRRVAEQVFIPFTVGGGIRTVEDFREILKAGADKVSINSAAVKRPELISEAASRFGSQCVVVAIDAKRRDDNSGWDVYINGGRINTGKDAVEWAVEVEKLGAGEILLTSMDCDGTKKGYDIELTRKVSESVRIPVIASGGAGTMEHFREALVEGKADAVLAASLFHYREIEIMELKKYLKENGIEIRM | not soluble
MGSDKIHHHHHHMARQNKRQSDDRELARKFEELLKEGTPGFFDVSVYESIIQYYLEGTKFRKAHRTCDIAMEQHPYSVEIMLLKVQVLMQMTQFEEALEILDRAQLYQPNDTDIQLLRANIMAQQDDFEGAIELLEEILTLAEEKDEIHYHMGVIYQDMGNFEESINHLKEAIMLNSQHEDAIYELSYSLEVLDRLEESIDFFKQLIEKDPYSHFAWFCLGVSYFKQGKLDEALDAYEFVIAINDKYSSAYYNIGECYVYKNEYEKALEYFFQTMDMEDKTADVFYNIGFCYEHLGMHPKAIEFYRKASKADAYFHEAYYGIGKCLEAQDKSYESIHFFKRALKLDEANAEYWLAKANAEYKTGNIISSLEAFEEACVLEPSNPEVWKNWSFVHYESGDMDKAIDLINAGIDEMPGNADLYYRAVAYLITAGRYKEAFNYLENALTLNFDSHTVLFEFFPKLETQKALFRIIDQYRNK | not soluble
MRAMNDRLPSFCTPLDDRWPLPVALPGVQLRSTRFDPALLQPGDFALAGIQPPANILRAVAKRQAEFLAGRLCARAALFALDGRAQTPAVGEDRAPVWPAAISGSITHGDRWAAALVAARGDWRGLGLDVETLLEAERARYLHGEILTEGERLRFADDLERRTGLLVTLAFSLKESLFKALYPLVGKRFYFEHAELLEWRADGQARLRLLTDLSPEWRHGSELDAQFAVLDGRLLSLVAVGA | not soluble
MPTAIDLFAGLGGWSNGARRAGVKVLWAANHWPVAVGWHSANHPDAIHVCQDLHQADWSKVPAHGIMLASPCCQGHSKARGKKSGNAQHDSSRSTAWAVVSAAEYHSPEVVLVENVEEFTDWALYPAWSQAMAALGYMIAPHVVDCADLGVPQHRVRLFLVCTRSKAPLNLQLHQRQHVPASSFIDFDSGKWSPIVKPSRAESTLTRVKNGRQRFGERFIMPYYRSGSGLTGSCIERPIGTITKLDRWALVRGNEMRMLSADEGLAGMSFDADTKRPASHRLTMHMAGTSTNPVG | not soluble
MNKYEEVLQELIKASGIEGAAIVSLDGLPIASVLPANAEEDKVAAMSAAILSLGERVVEELGKGTMEQITIKGDKGYVVITEIGQDAVLTTLAGQDSKLGLIYMEIKKAQQKLKELI | not soluble
GMMNTTQEGRQRLAERLADTVAQALEADLAKRERALLVVSGGSTPKPFFTSLAAKALPWARVDVTLADERWVTADDADSNARLVRETLLVGPAAEACFHPLTTDDDTPEAGVETVAERLESLPWPASAVILGMGGDGHTASLFPDSEQLATALETTSAAVVVHAPSVPQARITLSASRLADAGLHVLHITGNDKRRVLAEALAGDDVRQLPIRAFLSQPIATYWAP | soluble
MKFKKYILTGTLALLLSSTGIATIEGNKADASSLDKYLTESQFHDKRIAEELRTLLNKSNVYALAAGSLNPYYKRTIMMNEYRAKAALKKNDFVSMADAKVALEKIYKEIDEIINR | not soluble
MRMKKLTTLISAALLSTSVSFVAQAQDTVAIVLSTLNNPFFVTMKDGAEAKAKELGYNLIVLDSQNDPSKELSNVEDLTVRGVKAILINPTDSDAVSNAIRIANRSKIPVLTLDRGASRGEVVSHIASDNVVGGEMAGHFIEAKIGSDAKVIQLEGIAGTSAARERGEGFMNAVKGSKMQLLASQPADFDRTKGLNVMENLLAANPDVQAVFAQNDEMALGALRAIQASGKSVMIVGFDGTDDGIAAVERGQLAATVAQQPDMIGAIGIETADKMLKGEKVEAYIPVALKVIAK | not soluble
MAPKDQAADMDYDQTKKMVVDILKTDDGKKAIKELLNDDAMNEALVIDQDAIKGTIEKTLTSKKGEEFWKNIFEDTDFAEGFAKTLQTEHEKVIKKLMKDPDYQKMLMSVMQDPGMDKKYSQLAKSQEFRSYLEEVINETLSSPLYKKQFEDELKKAAKDTAKESELEHHHHHH | soluble
